Measurements published in article PMC4899725, “The transcriptional regulator GalR self-assembles to form highly regular tubular structures” (Scientific Reports, 2016).

Assays:
[1] = biological target: the molecule itself; assay: light scattering; 2 uM GalR diluted from a stock in 1 M NaCl into 50 mM TrisCl pH 8 with 78-1000 mM NaCl (or 25-700 mM Na2SO4 with 78 mM NaCl); 365 nm, stirring, room temperature; dimers to aggregates at low ionic strength
[2] = biological target: the molecule itself; assay: negative staining transmission electron microscopy; 3.8 uM GalR, 50 mM Tris:Cl pH 8, 250 mM NaCl unless otherwise stated (GalR^N48I: 150 mM NaCl); flash-frozen, stained with 1% phosphotungstic acid; dimers to ordered aggregates
[3] = biological target: the molecule itself; assay: dynamic light scattering; 6.4 uM GalR^T322R, 20 °C, 250 mM NaCl; monomers to dimer

B1: Gal repressor GalR, wild type (GalR^WT), hexahistidine-tagged (natural protein, Escherichia coli, UniProt P03024 1-343, looked up)
chain: MATIKDVARLAGVSVATVSRVINNSPKASEASRLAVHSAMESLSYHPNANARALAQQTTETVGLVVGDVSDPFFGAMVKAVEQVAYHTGNFLLIGNGYHNEQKERQAIEQLIRHRCAALVVHAKMIPDADLASLMKQMPGMVLINRILPGFENRCIALDDRYGAWLATRHLIQQGHTRIGYLCSNHSISDAEDRLQGYYDALAESGIAANDRLVTFGEPDESGGEQAMTELLGRGRNFTAVACYNDSMAAGAMGVLNDNGIDVPGEISLIGFDDVLVSRYVRPRLTTVRYPIVTMATQAAELALALADNRPLPEITNVFSPTLVRRHSVSTPSLEASHHATSD
notes: GalR, the Gal repressor of Escherichia coli; 37 kDa subunit
binding result [1]: binds

B2: GalR^N48I, hexahistidine-tagged (natural protein, Escherichia coli, UniProt P03024 1-343, looked up)
chain: MATIKDVARLAGVSVATVSRVINNSPKASEASRLAVHSAMESLSYHPIANARALAQQTTETVGLVVGDVSDPFFGAMVKAVEQVAYHTGNFLLIGNGYHNEQKERQAIEQLIRHRCAALVVHAKMIPDADLASLMKQMPGMVLINRILPGFENRCIALDDRYGAWLATRHLIQQGHTRIGYLCSNHSISDAEDRLQGYYDALAESGIAANDRLVTFGEPDESGGEQAMTELLGRGRNFTAVACYNDSMAAGAMGVLNDNGIDVPGEISLIGFDDVLVSRYVRPRLTTVRYPIVTMATQAAELALALADNRPLPEITNVFSPTLVRRHSVSTPSLEASHHATSD
notes: GalR of Escherichia coli with N48I; source: expressed from vector plasmid pSEM1026 under an L-arabinose inducible promoter, purified
binding result [2]: binds

B3: GalR^T322R, hexahistidine-tagged (natural protein, Escherichia coli, UniProt P03024 1-343, looked up)
chain: MATIKDVARLAGVSVATVSRVINNSPKASEASRLAVHSAMESLSYHPNANARALAQQTTETVGLVVGDVSDPFFGAMVKAVEQVAYHTGNFLLIGNGYHNEQKERQAIEQLIRHRCAALVVHAKMIPDADLASLMKQMPGMVLINRILPGFENRCIALDDRYGAWLATRHLIQQGHTRIGYLCSNHSISDAEDRLQGYYDALAESGIAANDRLVTFGEPDESGGEQAMTELLGRGRNFTAVACYNDSMAAGAMGVLNDNGIDVPGEISLIGFDDVLVSRYVRPRLTTVRYPIVTMATQAAELALALADNRPLPEITNVFSPRLVRRHSVSTPSLEASHHATSD
notes: GalR of Escherichia coli with T322R; Tetramer formation is strongly impaired in this mutant (cited); also called non-tetramerizing GalR mutant; source: expressed from vector plasmid pSEM1026 under an L-arabinose inducible promoter, purified
binding result [3]: binds
